Reference: the nanobody polyreactivity screen of Harvey et al. (2022)

Experiment: yeast display, Sf9 membrane polyspecificity reagent, FACS + sequencing; frameworks hold sequencing errors
Procedure, shortened: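 Galactose-induced (36–48 hours) yeast carrying a synthetic nanobody display library were exposed to 10% biotinylated, detergent-solubilized Sf9 membrane reagent at 4 °C for 1 hour. FACS followed streptavidin microbead enrichment, using low and high (top ~1%) gates for expression (anti-HA) and reagent binding (streptavidin). Colony PCR, MiSeq 2 × 250 sequencing and CDR-length filtering followed. Labels for polyreactivity reflect the gate of origin.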

Sequence	polyreactivity (PSR sort gate)
QVQLVESGGGLVQAGGSLRLSCAASGRIFSRNAMGWYRPAPGKERELVAAISWRGGRTYYADSVKGRFTISRDNAKNTVYLQMNSLKPEDTAVYYCNAVYRLSHYDLDYWGQGTQVTVSS	high polyreactivity
QVQLVESGGGLVQAGGSLRLSCAASGSIFTRNVMGWSRQAPGKERELVAAITGSGGRTYYADSVKGRFTISRDNAKNTVYLQMNSLKPEDTAVYYCAKSRPGTYDYWGQGTQVTVSS	high polyreactivity
QVQLVESGGGLVQAGGSLRLSCAASGIIFRFYSMGWYRKEPGKERELVAAITSSGGSTYYADSEKGRFTISRDNAKNTVYLQMNSLKPEDSAVYYCATSTGPYRGRFYYWGQGTQVTGSS	high polyreactivity
QVQLVESGGGLVQAGGSLRLSCAASGSIIGDNTMGWYRPAPGKERELVAAISSSGSTYYADSVKGRFTISRDNAKNTVYLQMNSLKPEDTAVYYCAAYDYGHVEYGYWGQGSQVTVSS	low polyreactivity
QVQLVESGGGLVQAGGSLRLSCAASGSTILSYGMGWYRQAPGKERELVAGISRGGITYYADSVKGRFTISRDNAKNNVYLQMNSLKPEDTAVYYCNVGLYSYYYRSRPRDYEYWGQGTQVTVSS	high polyreactivity
QVQLVESGGGLVQAGGSLRLSCAASGSIFSTYAMGWYRQAPGKERELVATIRRGGSTYYADSVKGRFTISRDNAKNTVYLQMNSLKPEDTAVYYCAATVSSYPYYRYYSWGQGTQVNVSS	high polyreactivity
QVQLVESGGGLVQAGGSLRLSCAASGSIFRLYAMGWYRQAPGKERELVAAISRRGGSTNYADSVKGRFTISRDNAKNTVYLQMNSLKPEDTAVYYCARDVDTHYPYAYDYWGQGTQVTVSS	high polyreactivity
QVQLVESGGGLVQAGGSLRLSCAASGLIFNLYAMGWYSQAPGKEREFVATITGIGGSTYYADSVKGRFTISRDNAKNTVYLQMNSLKPQDTAVYYCAADAWFLPYNYWGQGTQVTVSS	low polyreactivity
QVQLVESGGGLVQAGGSLRLSCSASRSTFPGYAMGWYRQAPGKERELVAAISVSGDRTYYADSVKRRFTISRDNPQNTVYLQMNRLKPEDTAVYYCAVRTRYRGSGVWVGNYSWGQGTQVTVSS	high polyreactivity
QVQLVESGGGLVQAGGSLRLSCAASGFTFYYNAMGWYRQAPGKERELVAAISWTGGSTRYADSVKGRFTISRDNAKNTVYLQMNSLKPEDTAVYYCAARGYNYWGQGTQVTVSS	high polyreactivity
QVQLVESGGGLDQAGGSLRLSCAASGLTFYTYAMGWYRQAPGTERELVAAIRWRGGRTYYADSVKGRFTISRDNAKNTVYLQMNSLKPEDTAVYYCAADYSTLYKYDYWGQGTQVTVSS	low polyreactivity
QVQLVESGGGLVQAGGSLRLSCAASGNTFEYYVMGWYRQAPGKERELVAAITWSTGSTYYADSVKGRFTISRDNAKNTVYLQMNSLKPEDTAVYYCAALYYFIFGRPTRFDYWGQGTQVTVSS	low polyreactivity
QVQLVESGGGLVQAGGSLRLSCAASGRTFAGNAMGWYRQAPGKEREFVASITASGVNTYYADSVKGRFTISRDNAKNTVYLQMNSLKPEDTAVYYCNKRNRWTPFYTYEYWGQGTQVTVSS	low polyreactivity
QVQLVESAGGLVQAGGSIRLSCAASGNIFFVYDMGWYRQAPGKERELVAAISWSGGSTYADSVKGRFTISRDNAKNTVYLQMNSLKPEDTAVYYWAASYGVYWYSFWYHVAWLDYWGQGTQVTVSS	low polyreactivity
QVQLVESRGGLVQAGGSLRLSCAASGSICYRYAMGWYRQAPGKERELVAAISYSGGSTYYADSVKGRFTISRDNAKNTVYLQMKSLKPEDTAVYYCAKDYPPPISDYSRYYGYGYWGQGTQVTVSS	low polyreactivity
QVQLLDSGGGLVQAGGSLRLSCAASGLILVPNTMGWYRQAPGKERELVADIRSGGTTNYADSVKGRFTISRDNAKNTVYLVMNSLKPEDTAVSYCAKEKYDYVGDYEVDYWGHGTQVTVSS	low polyreactivity
KVQLVESGGVLVQAGGSLRLICAASGRTFYGYAMGWSRQAPGKERELVAGITSGGSTTYADSVKGRFTISRDHAKKTVYLQMNSLKPEDTAVYYCAKKWYRTTRAYVFRSYDYWGQGTQVTVSS	high polyreactivity
